The record followed here is paper PMC3593993.

The target in this assay is constitutively active Go2α (Go2αQ205L), Gal4 DNA-binding domain fusion (pGBKT7-Go2αQ205L) (UniProt P18872). Put plainly: two-hybrid.

As to “Girdin prey of the mating and α-galactosidase experiments (pACT2-Girdin) (from UniProt Q5SNZ0 1318-1873) (domain or fragment)”, the fold of the interaction (α-galactosidase activity) against Go1αQ205L came to 2.5 fold.
